The values below come from patent publication US20260191907A1 (INSTITUT CURIE, published 2026).

The Kd is the free concentration of one partner at which half of the binding sites on the other are occupied at equilibrium, for simple one-to-one binding. A word on the kon: it is the rate constant with which the complex forms. Usually koff stands for the rate constant with which the complex falls apart.

To fix the notation:
B1: F8 nanobody (anti-FGFR4 sdAb, Gimli library) (VHH)
VHH: EVQLVESGGGLVQPGGSLRLSCAASGTGYALDDMGWVRQAPGKGLEWVSAISDDESMADYYADSVKGRFTISRDNSKNTVYLQMNSLRAEDTAVYYCASYKEYKYQSGHHYFAYRGQGTLVTVSS
notes: Recombinant nanobody of about 17 kDa; also called F8 sdAb; not shown: C-terminal Myc/6xHis-tag and an additional cysteine
B2: B1 nanobody (anti-FGFR4 sdAb, NaLi-H1 library) (VHH)
VHH: EVQLQASGGGFVQPGGSLRLSCAASGYTSRSSAMGWFRQAPGKEREFVSAISDLTGYPYYYADSVKGRFTISRDNSKNTVYLQMNSLRAEDTATYYCAAYQDDKWTYGSQHGKYWGQGTQVTVSS
notes: also called B1 sdAb; not shown: C-terminal Myc/6xHis-tag and an additional cysteine
B3: B5 nanobody (anti-FGFR4 sdAb, NaLi-H1 library) (VHH)
VHH: EVQLQASGGGFVQPGGSLRLSCAASGRTSWLTTMGWFRQAPGKEREFVSAISSFSSKQGYYADSVKGRFTISRDNSKNTVYLQMNSLRAEDTATYYCAYASYPRHQGNGRWKDFVEYWGQGTQVTVSS
notes: Recombinant nanobody of about 17 kDa; also called B5 sdAb; not shown: C-terminal Myc/6xHis-tag and an additional cysteine
B4: A8 nanobody (anti-FGFR4 sdAb, NaLi-H1 library) (VHH)
VHH: EVQLQASGGGFVQPGGSLRLSCAASGRTYSRDTMGWFRQAPGKEREFVSAISSRHSHTTYYADSVKGRFTISRDNSKNTVYLQMNSLRAEDTATYYCAEWDVFDMHYALPPMWYWGQGTQVTVSS
notes: also called A8 sdAb; not shown: C-terminal Myc/6xHis-tag and an additional cysteine

T1 sequence (P21802 22-821 limits assumed): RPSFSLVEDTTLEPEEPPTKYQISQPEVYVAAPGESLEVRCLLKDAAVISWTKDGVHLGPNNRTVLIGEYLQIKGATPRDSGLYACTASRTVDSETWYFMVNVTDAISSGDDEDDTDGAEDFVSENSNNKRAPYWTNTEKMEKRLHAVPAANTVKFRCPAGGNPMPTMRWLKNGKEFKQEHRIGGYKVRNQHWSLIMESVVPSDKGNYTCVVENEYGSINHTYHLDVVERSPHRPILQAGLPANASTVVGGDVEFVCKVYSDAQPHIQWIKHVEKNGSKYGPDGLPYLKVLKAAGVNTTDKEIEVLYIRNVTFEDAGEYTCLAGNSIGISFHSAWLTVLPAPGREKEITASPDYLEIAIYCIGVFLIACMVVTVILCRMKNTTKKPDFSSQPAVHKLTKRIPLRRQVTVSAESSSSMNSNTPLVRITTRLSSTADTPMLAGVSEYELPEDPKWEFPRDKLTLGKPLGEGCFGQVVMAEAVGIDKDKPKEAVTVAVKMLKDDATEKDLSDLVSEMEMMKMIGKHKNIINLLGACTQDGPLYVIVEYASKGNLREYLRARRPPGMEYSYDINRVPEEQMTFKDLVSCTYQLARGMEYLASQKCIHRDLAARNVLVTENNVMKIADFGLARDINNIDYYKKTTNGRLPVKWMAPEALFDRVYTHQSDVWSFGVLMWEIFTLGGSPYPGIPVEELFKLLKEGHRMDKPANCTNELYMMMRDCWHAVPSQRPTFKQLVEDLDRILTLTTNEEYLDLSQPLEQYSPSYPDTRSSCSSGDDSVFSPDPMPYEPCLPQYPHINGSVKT

One experiment addresses T1, FGFR2 expressed on Rh4-FR4ko cells (UniProt P21802 22-821, limits assumed).
T1 construct: whole, on cells; also called FGFR2 on Rh4 cells
The experiment in a line: flow cytometry on Rh4-FR4ko cells, which express FGFR1 and FGFR2. The protocol: The cells were incubated for 1 h with nanobodies at 10 μM (A8, B1, B5, F8, mCh) followed by stimulation of FGFR4 with 50 nM FGF19 for 10 min. Control cells (C) were either not stimulated or stimulated with FGF19 in absence of the nanobodies. The cell lysates were analysed by western blot with anti phospho ERK1/2 antibody. Total Erk1/2 levels are shown as loading control.
Binding validation of selected phages, recombinant nanobodies and decorated liposomes was performed on Rh4-FR4 wt and Rh4-FR4ko cells. Specificity of selected phage clones binding to FGFR4 was determined by flow cytometry in 96-well plates (Becton Dickinson). Cell surface staining of Rh4-FR4 wt or Rh4-FR4ko cells was performed on ice in PBS supplemented with 1% FBS. 80 μL phages+20 μL PBS/1% milk were incubated on 1×10⁵ cells for 1 h on ice. […] Samples were analyzed after two washes by flow cytometry on a MACSQuant® cytometer (Miltenyi) and results were analyzed with FlowJo™ software (BD Biosciences, France). Phages displaying anti-mCherry nanobodies were used as negative control²⁴ and as positive control we used an anti-FGFR4 antibody (BT53, kindly provided by J. Khan lab, NCI, Bethesda, MD). For binding test of recombinant nanobodies, cells were detached with Accutase® (Stemcell Technologies) and washed with PBS. All following steps were performed on ice: 4×10⁵ cells were incubated with nanobody concentrations of 30 μg/ml for 1 h, washed once with PBS and incubated for an additional 30 min with anti His-tag FITC labeled antibody (LS-C57341, LSBioscience, diluted 1:10). The cells were washed once more with PBS and analyzed. Targeting liposomes were added at 0.5 mM final lipid concentration to cells in 96-well plates and incubated for 2 h at 37° C. and 5% CO₂. The cells were washed twice with PBS and detached with Accutase®.
Validation of the binding of recombinant nanobodies to cell-surface expressed FGFR4 was performed with Rh4-FR4 wt and Rh4-FR4ko cells by flow cytometry.
B1: the binding result was “no binding (tested: 30 µg/ml)”.
On to B2, for which the binding result was “no binding (tested: 30 µg/ml)”.

Another experiment deals with T2, Recombinant FGFR4 (G&P Biosciences) (human, UniProt P22455 22-369).
T2 construct: Bought protein; the SPR method says only 'Recombinant; also called rFGFR4; extracellular FGFR4
T2 sequence: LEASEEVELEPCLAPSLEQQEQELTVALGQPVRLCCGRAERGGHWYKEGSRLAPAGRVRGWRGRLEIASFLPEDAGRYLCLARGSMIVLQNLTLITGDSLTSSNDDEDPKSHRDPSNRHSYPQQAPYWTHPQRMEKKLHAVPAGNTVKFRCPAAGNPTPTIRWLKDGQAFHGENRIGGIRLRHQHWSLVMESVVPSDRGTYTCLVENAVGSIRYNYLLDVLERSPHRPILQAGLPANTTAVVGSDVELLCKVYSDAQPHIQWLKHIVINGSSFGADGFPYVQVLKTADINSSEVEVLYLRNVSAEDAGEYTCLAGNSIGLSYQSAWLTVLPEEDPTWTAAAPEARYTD
Kind of experiment: SPR (BIAcore T200), single cycle kinetics, FGFR4 amine-immobilised, nanobody as analyte, heterogeneous ligand model, component 2 (KD2). The protocol:
(§1) FIG. 3: Affinity determination of nanobodies to recombinant protein via surface plasmon resonance spectroscopy. Single cycle kinetics analysis was performed on immobilized FGFR4 through covalent amine binding on the dextran based sensor chip. The analytes A8, B1, B5, F8 and mCh were injected in 5 different concentrations followed by a dissociation phase. A final dissociation step was added after the last injection step to determine Koff rates for the KD calculations. The black curves represent the measured data and red curves show the fit analysis (heterogeneous ligand model) performed with the BIAevaluation software.
(§2) Single cycle kinetics analysis was performed with the BIAcore® T200 instrument (GE Healthcare) on CMD200M sensor chips (XanTec bioanalytics GmbH) activated with a mixture of 300 mM NHS (N-hydroxysuccinimide) and 50 mM EDC (N-ethyl-N′-(dimethylaminopropyl) carbodiimide). Recombinant FGFR1, FGFR2, FGFR3 and FGFR4 (G&P Biosciences) were immobilized on the activated biosensors (800 to 12′000 RU; 1 RU=1 pg/mm²) followed by a blocking step with 1M ethanolamine. One flow channel per chip was used as a reference to provide background corrections. The nanobodies were injected at 5 different concentrations followed by a dissociation phase. Koff-rates were determined from a final dissociation step after the last injection. The measurements with FGFR4 were performed for each nanobody on freshly immobilized protein due to strong binding and incomplete dissociation from the surface. Immobilization flow rate was 5 μl/min and binding studies were performed at 30 μl/min. Binding parameters were determined with the heterogeneous ligand model fit of the BIAevaluation software. The black curves represent the measured data and red curves show the performed fit analysis.
(§3) To determine the binding affinity of the nanobodies to FGFR4, we performed surface plasmon resonance (SPR) spectroscopy with recombinant FGFR4. As already mentioned above, FGFR1 and FGFR2 are expressed on Rh4-FR4ko cells and flow cytometry analysis indicated no binding of the nanobodies to the cells. To further confirm FGFR4-specificity, we included also affinity measurements with recombinant FGFR1, FGFR2 and FGFR3. Nanobodies A8, B1, B5, F8, and mCh were injected in five different concentrations on a FGFR coated chip.
Regarding B1, the Kd came out at 4.14 nM.
Turning to B3, the Kd amounted to 0.000216 nM.
The same measure, in the same setting: under B4 stands 36.8 nM; under B2, 4.6 nM.

A further experiment deals with T2, Recombinant FGFR4 (G&P Biosciences). The experiment in a line: SPR (BIAcore T200), single cycle kinetics, FGFR4 amine-immobilised, nanobody as analyte, heterogeneous ligand model, component 1 (kon1). The method, then: as §1, §2, §3
In general terms: Surface plasmon resonance follows binding to a sensor surface in real time, without labels.
Take B1: the kon came to 54500 M⁻¹ s⁻¹.
B3: the kon came to 1.84e+06 M⁻¹ s⁻¹.
Same read-out and setting: under B4 stands 314000 M⁻¹ s⁻¹; under B2, 1.11e+06 M⁻¹ s⁻¹.

The target is the same in a further experiment. Kind of experiment: SPR (BIAcore T200), single cycle kinetics, FGFR4 amine-immobilised, nanobody as analyte, heterogeneous ligand model, component 2 (kon2). The protocol:
as §1, §2, §3
B1: the kon was determined as 1.35e+06 M⁻¹ s⁻¹.
Turning to B3, the kon was determined as 173000 M⁻¹ s⁻¹.
The same measure, in the same setting: then B4, with 66700 M⁻¹ s⁻¹; and B2, with 216000 M⁻¹ s⁻¹.

Another experiment shares this target. The experiment in a line: SPR (BIAcore T200), single cycle kinetics, FGFR4 amine-immobilised, nanobody as analyte, heterogeneous ligand model, component 1 (koff1). The protocol:
as §1, §2
To determine the binding affinity of the nanobodies to FGFR4, we performed surface plasmon resonance (SPR) spectroscopy with recombinant FGFR4. As already mentioned above, FGFR1 and FGFR2 are expressed on Rh4-FR4ko cells and flow cytometry analysis indicated no binding of the nanobodies to the cells. […]
In the case of B1, the koff was determined as 1.04e-06 s⁻¹.
The same measure, in the same setting: then B3, with 0.000566 s⁻¹; and B2, with 1.18e-06 s⁻¹.

For another experiment the target is unchanged. Kind of experiment: SPR (BIAcore T200), single cycle kinetics, FGFR4 amine-immobilised, nanobody as analyte, heterogeneous ligand model, component 2 (koff2); heterogeneous ligand model, component 2 (koff2). The method, then:
as §1
Single cycle kinetics analysis was performed with the BIAcore® T200 instrument (GE Healthcare) on CMD200M sensor chips (XanTec bioanalytics GmbH) activated with a mixture of 300 mM NHS (N-hydroxysuccinimide) and 50 mM EDC (N-ethyl-N′-(dimethylaminopropyl) carbodiimide). Recombinant FGFR1, FGFR2, FGFR3 and FGFR4 (G&P Biosciences) were immobilized on the activated biosensors (800 to 12′000 RU; 1 RU=1 pg/mm²) followed by a blocking step with 1M ethanolamine. […] Koff-rates were determined from a final dissociation step after the last injection. […] Binding parameters were determined with the heterogeneous ligand model fit of the BIAevaluation software. The black curves represent the measured data and red curves show the performed fit analysis. […]
In the case of B3, the koff worked out at 3.75e-08 s⁻¹.
